Measurements taken from publication PMC10483038.

Target: MBP-Vpu full length (HIV-1 Vpu fused to maltose binding protein) (HIV-1) (UniProt P05919)
Test: cryo-EM structure; single-particle cryoEM of MBP-FL Vpu at 10 µM in 25 mM Tris pH 7.4, 150 mM NaCl, 100 µM TCEP; two maps at ~25 Å; protomers counted by docking MBP into the densities

MBP-Vpu full length (HIV-1 Vpu fused to maltose binding protein) (from UniProt P05919 1-82) (natural protein)
stoichiometry N: 6 to 7
